Substitutions are numbered along the chain they refer to. Each block holds one binder with its values, some of them ahead of it.
Legend:
[1] = target: T1, MICA*008 expressed at the cell surface (human, UniProt Q29983 24-297); assay: flow cytometry on C1R transfectant cells
T1 construct: also called C1R-MICA*008; C1R-MICA*08
T1 chain: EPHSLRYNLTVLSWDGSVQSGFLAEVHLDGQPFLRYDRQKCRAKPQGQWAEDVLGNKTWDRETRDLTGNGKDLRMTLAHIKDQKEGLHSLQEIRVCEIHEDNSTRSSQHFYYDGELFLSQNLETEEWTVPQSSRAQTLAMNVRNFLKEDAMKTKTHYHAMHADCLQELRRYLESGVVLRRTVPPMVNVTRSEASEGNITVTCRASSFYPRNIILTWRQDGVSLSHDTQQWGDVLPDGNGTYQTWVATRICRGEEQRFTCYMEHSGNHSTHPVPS
Protocol: The binding of antibodies obtained from the first, second and third immunization series (including CHG1-M-MIA-19E9, CHG1-M-MIA-9C10, CHG1-M-MIA-6E4, CHG1-M-MIA-20C6, CHG1-M-MIA-16A8, CHG1-M-MIA-12A10, CHG1-M-MIA-10A7, CHG1-M-MIA-18E8, CHG1-M-MIA-10F3, CHG1-M-MIA-15F9 and CHG1-M-MIA-14B4) were tested for binding to MICA-expressing CR1 transfectant cells C1R-MICA*001, C1R-MICA*004, C1R-MICA*007 and C1R-MICA*008 (Pr. A. Steinle, Eberhard-Karls University Tuebingen, Germany) described in Salih et al. (2003) Blood 102(4): […]. Binding was analyzed by flow cytometry.
Cells were harvested and stained in PBS 1×/BSA 0.2%/EDTA 2 mM buffer during 30 minutes at 4° C. using a dose-range of the anti-MICA mAbs. After two washes in staining buffer, cells were stained for 30 min at 4° C. with mouse anti-human IgG1-PE monoclonal antibodies (1/11). After two washes, stainings were acquired on a BD FACS Canto II and analyzed using the FlowJo software.

[2] = target: T2, recombinant human MICA extracellular domain recombinant-Fc protein (MICA*019 allele, R&D Systems) (human, UniProt Q29983 24-297); assay: SPR solution competition experiment (MICA*019-Fc pre-incubated with antibody, NKG2D-Fc chip)
T2 construct: also called MICA*019-Fc; MICA-Fc; not shown: Fc of the bought fusion protein
T2 chain: T1 chain with G175S
Protocol: SPR measurements were performed on a Biacore T100 apparatus (Biacore GE Healthcare) at 25° C. In all Biacore experiments HBS-EP+ buffer (Biacore GE Healthcare) served as running buffer, 10 mM NaOH, 500 mM NaCl served as regeneration buffer and sensorgrams were analyzed with Biaevaluation 4.1 and Biacore T100 Evaluation software.
For solution competition experiments, the human NKG2D-Fc (R&D systems) recombinant proteins were covalently immobilized onto a CM5 sensorchip. Soluble human MICA*01-BirA or human MICA*019-Fc (R&D systems) recombinant proteins at a constant concentration of 10 μg/ml were pre-incubated with a 5 to 10 molar equivalent excess of antibodies and injected for 2 minutes at a flow rate of 10 μl/min onto the NKG2D-Fc chip. After each cycle, Sensorchips were regenerated by a five second injection of appropriate regeneration buffer.

binding result [1]: binds
B1: CHG1-M-MIA-6E4 (antibody, V domains shown)
VH: EVQLVESGGALVKPGGSLKLSCAASGFTFSYYAMSWVRQTPEKRLEWVATISRGGNYIYYTDSVKGRFTISRDNAKNTLYLQMTSLRSEDTAMFYCASISDYDGAWLAYWGQGTTLTVSS
VL: DVLMTQTPLSLPVSLGDQASISCRSSQSIIHTNGNTYLEWYLQKPGQSPKLLIYKISNRFSGVPDRFSGSGSGTDFTLKISRVEAEDLGVYYCFQGSHVPWTFGGGTKLEIKR
notes: also called chimeric anti-MICA 6E4

binding result [2]: no binding
B2: CHG1-M-MIA-16A8 (antibody, V domains shown)
VH: EVQLVESGGGLVKPGGSLKLSCAASGFTFSRYAMSWVRQTPEKRLEWVATIFSGGSYTYYPDSVKGRFTISRDNANNTLYLQMSSLKAEDTAMYFCARPNWERTFDYWGQGTTLTVSS
VL: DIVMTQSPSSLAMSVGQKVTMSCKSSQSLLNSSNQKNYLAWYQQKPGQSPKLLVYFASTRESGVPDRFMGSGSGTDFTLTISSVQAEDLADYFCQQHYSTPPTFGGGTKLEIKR
notes: also called CHG1-M-MIA2-16A8; chimeric anti-MICA 16A8

Source: patent US20200299380A1 (published 2020)
